Laboratory results from publication PMC5397172.

Key:
Assay in all cases: EMSA
Flag-p65 (homodimer) = Flag-p65 (homodimer) (UniProt Q04206 1-551)
Flag-p50 (homodimer) = Flag-p50 (homodimer) (UniProt P19838 1-433)
HA-p65;Flag-p50 = HA-p65;Flag-p50 (human?;human?, UniProt Q04206;P19838 1-551;1-433, |)

Measured: binding result

Flag-p65 (homodimer), sequence (Q04206 whole entry): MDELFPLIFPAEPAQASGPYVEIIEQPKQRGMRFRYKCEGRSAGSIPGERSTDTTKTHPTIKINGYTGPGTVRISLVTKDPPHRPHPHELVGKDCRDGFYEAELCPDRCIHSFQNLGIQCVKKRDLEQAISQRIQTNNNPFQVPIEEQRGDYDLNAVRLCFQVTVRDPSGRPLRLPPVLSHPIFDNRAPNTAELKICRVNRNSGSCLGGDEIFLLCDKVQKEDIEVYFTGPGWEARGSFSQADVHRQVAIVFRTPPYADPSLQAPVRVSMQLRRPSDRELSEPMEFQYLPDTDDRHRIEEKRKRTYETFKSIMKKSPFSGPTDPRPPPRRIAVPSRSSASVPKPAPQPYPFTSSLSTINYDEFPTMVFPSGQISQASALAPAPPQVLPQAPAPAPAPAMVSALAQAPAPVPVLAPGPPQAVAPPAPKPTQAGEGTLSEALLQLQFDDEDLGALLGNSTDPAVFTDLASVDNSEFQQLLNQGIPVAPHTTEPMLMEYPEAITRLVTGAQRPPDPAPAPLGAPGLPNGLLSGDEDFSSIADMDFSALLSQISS
HA-p65;Flag-p50, sequence (Q04206 whole entry, chain 1 of 2): as the sequence (Q04206 whole entry) above
HA-p65;Flag-p50, sequence (P19838 1-433, chain 2 of 2): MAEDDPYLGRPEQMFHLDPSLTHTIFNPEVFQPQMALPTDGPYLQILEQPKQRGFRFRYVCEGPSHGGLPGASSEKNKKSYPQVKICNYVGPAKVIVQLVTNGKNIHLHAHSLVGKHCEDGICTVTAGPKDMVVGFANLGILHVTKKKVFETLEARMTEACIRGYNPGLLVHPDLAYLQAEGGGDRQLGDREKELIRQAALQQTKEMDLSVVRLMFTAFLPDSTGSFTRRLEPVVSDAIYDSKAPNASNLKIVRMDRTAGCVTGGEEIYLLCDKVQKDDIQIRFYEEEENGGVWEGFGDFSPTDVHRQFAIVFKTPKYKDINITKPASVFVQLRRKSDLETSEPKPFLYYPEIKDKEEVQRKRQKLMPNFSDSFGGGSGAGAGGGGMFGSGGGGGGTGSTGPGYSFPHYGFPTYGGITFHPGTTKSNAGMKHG
Flag-p50 (homodimer), sequence (P19838 1-433): as the sequence (P19838 1-433, chain 2 of 2) above

B1: Ig kappaB mutant (dsDNA)
DNA 1: AGTTGAATCCACTTTCCCAGG
DNA 2: CCTGGGAAAGTGGATTCAACT
no binding: all assays above
